Measured values reported in patent US20240360223A1 (DRAGONFLY THERAPEUTICS, published 2024).
Blank lines part the entries; values can stand above or below the binder they belong to.

What was measured:
[1] = biological target: T1, human BAFF-R expressed on cells (human, UniProt Q96RJ3 1-184); experiment: flow cytometry on hBAFFR-CHO cells, anti-mouse (H+L)-PE
T1 construct: Cell surface BAFF-R, endogenous on B cell lines and primary B cells or overexpressed on isogenic CHO cells; also called hBAFF-R; hBAFF-R-CHO

[2] = biological target: T1, human BAFF-R expressed on cells; experiment: flow cytometry on hBAFFR-CHO cells, anti-mouse IgG(H+L)-PE
[3] = biological target: T1, human BAFF-R expressed on cells; experiment: cell-based or functional assay
[4] = biological target: T1, human BAFF-R expressed on cells; experiment: flow cytometry, BAFF-R-CHO cells
[5] = biological target: T1, human BAFF-R expressed on cells; experiment: told of the group of Table 17, reference AB0369; format not given
[6] = biological target: T2, cynomolgus monkey BAFF-R expressed on cells (cynomolgus monkey); experiment: flow cytometry, cBAFF-R+ cells
T2 construct: whole, on cells; also called cBAFF-R; cynoBAFF-R

[7] = biological target: T1, human BAFF-R expressed on cells; experiment: flow cytometry, hBAFF-R+ cells
[8] = biological target: T1, human BAFF-R expressed on cells; experiment: flow cytometry, hBAFF-R+ cells; remark: listed apart in the source
[9] = biological target: T2, cynomolgus monkey BAFF-R expressed on …; experiment: flow cytometry, cyno BAFF-R CHO cells
[10] = biological target: T1, human BAFF-R expressed on cells; experiment: flow cytometry, human BAFF-R CHO cells
[11] = biological target: T1, human BAFF-R expressed on cells; experiment: blocking of BAFF-biotin on hBAFF-R CHO cells
[12] = biological target: T2, cynomolgus monkey BAFF-R expressed on …; experiment: flow cytometry, cyno BAFF-R CHO cells; remark: listed apart in the source
[13] = biological target: T1, human BAFF-R expressed on cells; experiment: flow cytometry, human BAFF-R CHO cells; remark: listed apart in the source
[14] = biological target: T1, human BAFF-R expressed on cells; experiment: blocking of BAFF-biotin on BAFF-R CHO cells

EC50 (read off the curve) [2]: ~0.3 nM
B4: 7G4 (antibody, V domains shown)
VH: QVQLQQPGAELVKPGASVKLSCKASGYTFTSYWMHWVKQRPGQGLEWIGEVDPSDSYTNYNQKFKGKATLTVDKSSSTAYILLSNLTSDDSAVYYCARERVRLWSYFFDYWGQGTTLTVSS
VL: DVVMTQTPLSLPVSLGDQASISCRSSQSIVHSNGNTYLEWYLQKPGQSPKLLIYKVSNRLSGVPDRFSGSGSGTDFTLKISRVEAEDLGVYYCFQGSHDPFTFGSGTKLEIK
notes: Mouse hybridoma mAb from DNA immunization; also called clone 7G4

EC50 [6]: > 14 nM | EC50 [7]: > 8 nM
B6: AB1081 (bispecific antibody, V domains shown)
VH: EVQLVQSGGGVVQPGRSLRLSCAASGFAFSSYGMHWVRQAPGKCLEWVAVIWYDESNKYYGDSVKGRFTISRDNSRNTLYLQMNSLRDEDTAVYYCARRFTNLRGWIIEDYGLDVWGQGTTVTVSS
VL: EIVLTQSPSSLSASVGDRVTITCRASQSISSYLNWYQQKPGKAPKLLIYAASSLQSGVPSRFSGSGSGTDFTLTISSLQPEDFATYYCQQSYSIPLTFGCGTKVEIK
notes: also called AB1081-002

EC50 [6]: 4.34 nM | EC50 [7]: 5.78 nM | EC50 [9]: 3.29 nM | EC50 [10]: 4.48 nM | IC50 [11]: 12.7 nM
B9: AB1085 (bispecific antibody, V domains shown)
VH: EVQLVQSGGGVVQPGRSLRLSCAASGFTFGSYGMHWVRQAPGKCLEWVAVIWYDGSNKYYGDSVKGRFTISRDNSKNTLYLQMNSLRDEDTAVYYCARRFTHLRGQYIEDYGMDVWGQGTTVTVSS
VL: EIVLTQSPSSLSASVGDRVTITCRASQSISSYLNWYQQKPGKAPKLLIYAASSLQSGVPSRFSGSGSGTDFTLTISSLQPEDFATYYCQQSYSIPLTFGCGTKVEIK
notes: also called AB1085-001

EC50 [6]: 1.36 nM | EC50 [7]: 1.97 nM | EC50 [9]: 2.36 nM | EC50 [10]: 2.71 nM | IC50 [11]: 5.72 nM
B11: AB1080 (bispecific antibody, V domains shown)
VH: EVQLVQSGGGVVQPGRSLRLSCAASGFTFSSYGMHWVRQAPGKCLEWVAVIWYDASNKYYGDSVKGRFTISRDNSKNTLYLQMNSLRDEDTAVYYCARRFTHLRGWYIEDYGLDVWGQGTTVTVSS
VL: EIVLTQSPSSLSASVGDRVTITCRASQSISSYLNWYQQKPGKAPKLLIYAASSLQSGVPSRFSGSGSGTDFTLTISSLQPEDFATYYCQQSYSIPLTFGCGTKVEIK
notes: also called AB1080-002; AB1080-003

EC50 [8]: 4.3 nM
B12: AB0898 (bispecific antibody, V domains shown)
VH: EVQLVQSGGGVVQPGRSLRLSCAASGFTFSSSGMHWVRQAPGKCLEWVAVIWYDASNKYYGDSVKGRFTISRDNSKNTLYLQMNSLRDEDTAVYYCARRFTRLRGWYIEDYGLDVWGQGTTVTVSS
VL: not shown

Second part, the binder before the results:

B1: 10H7-C5 (antibody, V domains shown)
VH: EVQLVESGGGLVKPGGSLKLSCAASGFSFSRYAMSWVRQTPEKRLEWVATISDGGSYTHYRDNVKGRFTISRDNAKNNLNLQMSHLKSEDTAIYYCARNEMGLYFDYDVYAMDYWGQGTSVTVSS
VL: DIVMTQTPLSLPVSLGDQASISCRSSQSLLHSNGNTYLYWYLQKPGQSPKLLIHRVSNRFSGVPDRFGGSGSGTDFTLKIIRVEAEDLGVYFCFQGTHVPWTFGGGTKLEIK
notes: Mouse hybridoma mAb from DNA immunization; also called clone 10H7-C5
EC50 (read off the curve) [1]: 1 to 10 nM

B2: 1B3-A7 (antibody, V domains shown)
VH: EVQLVESGGGLVKPGGSLKLSCVVSGFTFSNYAMSWVRQTPEKRLEWVATISDGGGYTYYPDSVKGRFTISRDNAKNNLYLQMSHLKSEDTAIYYCARDDLGGGNYVSSYFDVWGTGTTVTVSS
VL: DVVMTQTPLSLPVSPGDQASISCRSSQSLVHSNGNTYLYWYLQKPGQSPKLLIYRVSNRFSGVPDRFSGSGSGTDFTLKINRVEAEDLGVYFCFQGTHVPLTFGSGTKLELK
notes: Mouse hybridoma mAb from DNA immunization; also called clone 1B3-A7
EC50 (read off the curve) [1]: ~2 nM

B3: 3A1 (antibody, V domains shown)
VH: QVQLQQPGAELVKPGASVKLSCKASGYTFTSYWMHWVKQRPGQGLEWIGEIDPFDSYTNYNQNFKGKATLTVDKSSSTAYMLLSSLTSDDSAVYYCARERLRLWSYYFDYWGQGTTLTVSS
VL: DVVMTQTPLSLPVSLGDQASISCRSSQSIVHSNGNTYLEWYLQKPGQSPKLLIYKVSNRLSGVPDRFSGSGSGTDFTLKISRVEAEDLGVYYCFQGSHDPFTFGSGTKLEIK
notes: Mouse hybridoma mAb from DNA immunization; also called clone 3A1
EC50 (read off the curve) [2]: ~0.3 nM

B5: AB0605 (bispecific antibody, V domains shown)
VH: EVQLVQSGGGVVQPGRSLRLSCAASGFTFSSYGMHWVRQAPGKCLEWVAVIWYDGSNKYYGDSVKGRFTISRDNSKNTLYLQMNSLRDEDTAVYYCARRFTMLRGQYIEDYGMDVWGQGTTVTVSS
VL: not shown
notes: also called AB0605-001
KHYG-A-CD16Av mediated Cytolysis of Ramos cells EC50 [3]: 0.15 nM | EC50 [4]: 5.72 nM | fold improvement in BAFF-R binding against AB0369 [5]: > 3 fold

B7: AB0900 (bispecific antibody, V domains shown)
VH: EVQLVQSGGGVVQPGRSLRLSCAASGFTFSSSGMHWVRQAPGKCLEWVAVIWYDASNKYYGDSVKGRFTISRDNSKNTLYLQMNSLRDEDTAVYYCARRFTSLRGWYIEDYGLDVWGQGTTVTVSS
VL: not shown
EC50 [8]: 11.7 nM

B8: AB0622 (bispecific antibody, V domains shown)
VH: EVQLVQSGGGVVQPGRSLRLSCAASGFTFSSYGMHWVRQAPGKCLEWVAVIWYDGSNKYYGDSVKGRFTISRDNSKNTLYLQMNSLRDEDTAVYYCARRFTMLRGWIIEDYGMDVWGQGTTVTVSS
VL: not shown
notes: also called AB0622-001
KHYG-A-CD16Av mediated Cytolysis of Ramos cells EC50 [3]: 0.09 nM | EC50 [4]: 3.45 nM | fold improvement in BAFF-R binding against AB0369 [5]: > 3 fold

B10: AB0682 (bispecific antibody, V domains shown)
VH: EVQLVQSGGGVVQPGRSLRLSCAASGFTFSSSGMHWVRQAPGKCLEWVAVIWYDGSNKYYGDSVKGRFTISRDNSKNTLYLQMNSLRDEDTAVYYCARRFTMLRGWYIEDYGMDVWGQGTTVTVSS
VL: not shown
notes: also called AB0682-001
EC50 [12]: 3.1 nM | EC50 [13]: 2.4 nM | IC50 [14]: 12.6 nM

B13: AB0899 (bispecific antibody, V domains shown)
VH: EVQLVQSGGGVVQPGRSLRLSCAASGFTFSSSGMHWVRQAPGKCLEWVAVIWYDASNKYYGDSVKGRFTISRDNSKNTLYLQMNSLRDEDTAVYYCARRFTYLRGWYIEDYGLDVWGQGTTVTVSS
VL: not shown
EC50 [8]: 4.3 nM

B14: AB0606 (bispecific antibody, V domains shown)
VH: EVQLVQSGGGVVQPGRSLRLSCAASGFTFSSYGMHWVRQAPGKCLEWVAVIWYDGSNKYYGDSVKGRFTISRDNSKNTLYLQMNSLRDEDTAVYYCARRFTMLRGWYIEDYGMDVWGQGTTVTVSS
VL: not shown
notes: also called AB0606-001
KHYG-A-CD16Av mediated Cytolysis of Ramos cells EC50 [3]: 0.06 nM | EC50 [4]: 4.5 nM | fold improvement in BAFF-R binding against AB0369 [5]: > 3 fold

B15: AB0679 (bispecific antibody, V domains shown)
VH: EVQLVQSGGGVVQPGRSLRLSCAASGFPFSSYGMHWVRQAPGKCLEWVAVIWYDGSNKYYGDSVKGRFTISRDNSKNTLYLQMNSLRDEDTAVYYCARRFTMLRGWYIEDYGMDVWGQGTTVTVSS
VL: not shown
notes: also called AB0679-001
EC50 [12]: 2.6 nM | EC50 [13]: 2.3 nM | IC50 [14]: 9.4 nM
